Data reported in IntAct's records for PubMed 26555173.

B1: Sterol regulatory element-binding protein cleavage-activating protein (Cricetulus griseus (Chinese hamster)), P97260 (parent)
chain: MTLTERLREKISQAFYNHGLLCASYPIPIILFTGLCILACCYPLLKLPLPGTGPVEFSTPVKDYSPPPVDSDHKQGEPSEQPEWYVGAPVAYIQQIFVKSSVSPWHKNLLAVDVFRLPLSRAFQLVEEIRNHVLRDSSGTKSLEEVCLQVTDLLPGLRKLRNLLPEHGCLLLSPGNFWQNDWERFHADPDIIGTIHQHEPKTLQTSATLKDLLFGVPGKYSGVSLYTRKRTVSYTITLVFQRYHAKFLSSLRARLMLLHPSPNCSLRAENLVHVHFKEEIGIAELIPLVTTYIILFAYIYFSTRKIDMVKSKWGLALAAVVTVLSSLLMSVGLCTLFGLTPTLNGGEIFPYLVVVIGLENVLVLTKSVVSTPVDLEVKLRIAQGLSSESWSIMKNVATELGIILIGYFTLVPAIQEFCLFAVVGLVSDFFLQMFFFTTVLSIDIRRMELADLNKRLPPESCLPSAKPVGRPARYERQLAVRPAMPHTITLQPSSFRNLRLPKRLRVIYFLARTRLAQRLIMAGTVVWIGILVYTDPAGLRTYLAAQVTEQSPLGEGSLGPMPVPSGVLPASRPDPAFSIFPPDAPKLPENQTVPGELPEHAAPAEGVHDSRAPEVTWGPEDEELWRRLSFRHWPTLFNYYNITLAKRYISLLPVIPVTLRLNPQEALEGRQPQDGRSAWAPPESLPAGLWEAGPKGPGGTQAHGDITLYKVAALGLAAGIVLVLLLLCLYRVLCPRNYGQPGGGAGRRRRGELPCDDYGYAPPETEIVPLVLRGHLMDIECLASDGMLLVSCCLAGQVCVWDAQTGDCLTRIPRPGSRRDSCGGGAFETQENWERLSDGGKTSPEEPGESPPLRHRPRGPPQPALFGDQPDLTCLIDTNFSVQLPPEPTQPEPRHRAGCGRARDSGYDFSRLVQRVYQEEGLAAVRMPALRPPSPGSPLPQASQEDGAAPEKGSPPLAWAPSTAGSIWSLELQGNLIVVGRSSGRLEVWDAIEGVLCCSNDEVSSGITALVFLDRRIVAARLNGSLDFFSLETHTSLSPLQFRGTPGRGSSPSSSVYSSSNTVACHLTHTVPCAHQKPITALRAAAGRLVTGSQDHTLRVFRLEDSCCLFTLQGHSGAITTVYIDQTMVLASGGQDGAICLWDVLTGSRVSHTFAHRGDVTSLTCTTSCVISSGLDDLINIWDRSTGIKLYSIQQDLGCGASLGVISDNLLVTGGQGCVSFWDLNYGDLLQTVYLGKNSEAQPARQILVLDNAAIVCNFGSELSLVYVPSVLEKLD
partner: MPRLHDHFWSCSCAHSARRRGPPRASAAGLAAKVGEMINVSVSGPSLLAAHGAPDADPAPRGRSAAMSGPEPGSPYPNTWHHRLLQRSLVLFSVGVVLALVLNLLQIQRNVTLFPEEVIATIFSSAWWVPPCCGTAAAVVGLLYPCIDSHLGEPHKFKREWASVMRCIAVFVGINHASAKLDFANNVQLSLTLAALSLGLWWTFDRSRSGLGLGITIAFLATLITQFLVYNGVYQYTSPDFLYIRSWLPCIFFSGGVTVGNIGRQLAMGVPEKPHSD

Variants of: B1
Settings: with insi1_human INSIG1, O15503

effect of a mutation on the interaction | Variant
increasing interaction strength | N263E;N590E;N641E
